Measured values as given in publication PMC2682783.

Columns and labels:
[1] = target: urea transporter ApUT from Actinobacillus pleuropneumoniae (Actinobacillus pleuropneumoniae); assay: native gel or EMSA
[2] = target: urea transporter ApUT from Actinobacillus pleuropneumoniae (Actinobacillus pleuropneumoniae); assay: cross-linking
[3] = target: urea transporter ApUT from Actinobacillus pleuropneumoniae (Actinobacillus pleuropneumoniae); assay: electron microscopy of negatively stained 2D crystals

stoichiometry N [1]: 2
stoichiometry N [2]: 2
stoichiometry N [3]: 2
Substance: urea transporter ApUT from Actinobacillus pleuropneumoniae (from UniProt A0A2Z6AQW9 1-300) (natural protein)
